{
  "source": "the DeepSol protein solubility set",
  "data": [
    {"test": "soluble on expression in E. coli; label from the status in PepcDB or PDB records", "values": [
      {"sequence": "RELHPVAPLLDNLTSALNKVYQRKGVNISLDISPEISFVGEQNDFVEVMGNVLDNACKYCLEFVEISARQTDEHLYIVVEDDGPGIPLSKREVIFDRGQRVDTLRPGQGVGLAVAREITEQYEGKIVAGESMLGGARMEVIFGRQHSAPKDE", "soluble on expression in E. coli": "soluble"},
      {"sequence": "VIESMSDGYIVVDTSNSIVDVNRAVLELAGKTRKEVLGKNLTYLFGEGVELLCHTPEGDFGREISLKSGSEIKFFTVSVSPLMARNEPEGKLIMIHDIT", "soluble on expression in E. coli": "not soluble"},
      {"sequence": "MGSDKIHHHHHHMVLRNSEGTHVHAADADQRPRAICLSTMTTNMQIVTLFRDAPDFAEPGNFEAHLVRLWSVIEALSGKDDRLGQWYLTGSTEEEALLYPAFEASGAPSTALLAVLKTKYQGKRNRAKVVGLWNGHNNPTDGATLKLSIDTGPLPSEVAIDPPKPRDAETGLAPLAAIQGIVSLLVATYAPAVVSVAPMDYFEKKVFDDKPGVGWMLYLPKVITQQQVPEARALIPVPAKGKQTGTIIVSVTDAPFSVDNPEHVAIANRIEIRLVDQDLLPAYVDI", "soluble on expression in E. coli": "not soluble"},
      {"sequence": "MSLKKIKRITAYQVDLPLHEGSYNWSGGKTVNIFDSTIVAIETDDGLIGYGECCPLGPFYLPSYAEGVRAGIKELGPHLIGLDATDHSYINMVMDQCLKGHPYVKSPIDIACWDIKGKAANMPISKLLGGTYDEDFVLYRAISQNEPDAMASNVKKYRDEGYRRFQLKVGGSPNEDIERIRSVASKLEDGDKLIADANTGWLAHEALRVIRAVNDIDVYIEQPCQSYEECLSVRQKTTHPFILDESVKNIGVLVRGYHDKAMDAVNIKISKFGGITKAVLARDLCTELGIAMTIEDSWGGDIVTATIAHLAHSTQPKLLFTATDFNSYVTVHIADGAPQRNNGRMKSSGEGHHHHHH", "soluble on expression in E. coli": "not soluble"},
      {"sequence": "GSHHHHHHGSHMDEKLLKTIAESKYLVALTGAGVSAESGIPTFRGKDGLWNRYRPEELANPQAFAKDPEKVWKWYAWRMEKVFNAQPNKAHQAFAELERLGVLKCLITQNVDDLHERAGSRNVIHLHGSLRVVRCTSCNNSFEVESAPKIPPLPKCDKCGSLLRPGVVWFGEMLPPDVLDRAMREVERADVIIVAGTSAVVQPAASLPLIVKQRGGAIIEINPDETPLTPIADYSLRGKAGEVMDELVRHVRKALS", "soluble on expression in E. coli": "soluble"},
      {"sequence": "MSLAEYVYTMSRVSKIVPPKRQILKDISLSFFPGAKIGVLGLNGAGKSTLLRIMAGIDKDIDGEARPQPGLKVGYLPQEPKLDESKTVREVVEEAVADVAYALKRLDEVYAAYAEPDADFDALAKEQGELEALIQAKNGHNLDNALERAADALRLPEWDAQVKYLSGGERRRVAICRLLLENPDMLLLDEPTNHLDAESVAWLERFLVDYAGTVVAITHDRYFLDNAAGWILELDRGEGIPWQGNYTSWLEQKDARLKQEASEGHHHHHH", "soluble on expression in E. coli": "not soluble"},
      {"sequence": "MFSGKRLKKRRITLGYSQSELADKLHINRSSYFNWENEKTKPNQSNLKQLAILLDVPETYFESEYKIVNTYLQLSLQNQEKVEKYAEELLQTQKVHEKIVPLFAVEVLSEIQLSAGPGEGLYDEFETETVYSEDEYTGFDIATWISGNSMEPVYKDGEVALIRSTGFDHDGAVYALNWNGSLYIKKLYREEDGFRMVSINPDVAERFIPFEDEIRIVGKIVGHFMPVIGGLEHHHHHH", "soluble on expression in E. coli": "soluble"},
      {"sequence": "MAIDVLDVISLSLFKQQIEFEEDDRDELITLYAQAAFDYCMRWCDEPAWKVAADIPAAVKGAVLLVFADMFEHRTAQSEVQLYENAAAERMMFIHRNWRGKAESEEGS", "soluble on expression in E. coli": "soluble"},
      {"sequence": "MSLIILDNHFHVDPNHGLFLEAVKQFQRAGGTHLIVVYKTAHDYGFPGLKAEDFMKAMDFHIELVEKINRETQVKAYAVVGVHPAEFDYLARNKGLEFARNEVMKALEYAQKLCLEGKAVGIGEVGRPHYEVPQQIWEVSIEIMKYAMELAKDADCAVQLHTESFNEEKFRELGEYIREVGIKPYKVVKHFSPPLVNVAKEVGVFPSIIASKKNIEEAIKQGNRFLMETDYIDDKRRPGAVLGPKTVPKRTKEFLQRGIFTEEDVYKIHVENPKKVYGIEIEGHHHHHH", "soluble on expression in E. coli": "soluble"},
      {"sequence": "MAHHHHHHMSELQSLTPETAFTVASTFLAYYYSEFVKLNELARMSDLYDERSYMTLVDFRDEVPVVAHGRNAVANLLAKLDSTLGQRKVEIITVDTVALPHNCVQVICQGVMYLREYRRVFLHVFMLEPTAYRTKTYHIASDYLRFVDSEKEVIPEGAVVIAADQVAAYLEESRRRVEEEQRRQLLEFQQRIRLQQQQLQMQQQQQQQKAAAMNMPAPASRQSRPAASASRDGGRPARGERKPREPRENRGERKPREPREPRGEHKPREGEEKVAAASPSRLAGEGKKGGERGNRKPAAAANAAKGTADTAAATPAPAAVRKPRRESGPTAAIIMLRVPKKIKLSDIKAELVSQGFSELKDLFWCGRDSAHAVVKFSTVEKATEAFETKPFKIQGESLNLDYYHE", "soluble on expression in E. coli": "soluble"},
      {"sequence": "VSSGAGSDATGAGGVHAAGSGDRAVAAAVERAKATAARNIPAFDDLPVPADTANLREGADLNNALLALLPLVGVWRGEGEGRGPDGDYRFGQQIVVSHDGGDYLNWESRSWRLTATGDYQEPGLREAGFWRFVADPYDPSESQAIELLLAHSAGYVELFYGRPRTQSSWELVTDALARSRSGVLVGGAKRLYGIVEGGDLAYVEERVDADGGLVPHLSARLSRFVG", "soluble on expression in E. coli": "soluble"},
      {"sequence": "MGSDKIHHHHHHMVKMRALLSGYYGKGNGGDEALLATLLQMLPSHVTPVVLSGNPEETRDRYNVETYDRMAPLAVLQALRSSDALIWGGGSIIQDVTSTISPFYYGGMMALAQKMGLKTVAWAQGIGPLVRPQTRWLARQTFGNCTKVSVRDRASAALLSDWQIPCIIAPDPVWALESKPVPGLWDLPAPRVAVTLRSHPQLTETRLANLTRALVDFQKATQAFILLLPFQKSEDLSIAEAIQPHLKDVSQILCLEDPQLLKGVFRGVEMAIGMRLHSLIMAAAEGCRCFALSYDPKVNRLMEDLEMPGWDLASLPNDPNLISLTWMEHYANGDPLSPDQIQSLVDRALIHRELLSQAFI", "soluble on expression in E. coli": "not soluble"},
      {"sequence": "MGESGLFDTPDQKVGLTGRPLREFPEPEPLHKHGPAKIISMCNQKGGVGKTTSTINLGACLAEAGRKVLLVDLDPQGALSAGLNIPHEELEITVYNLLVDRHTSIHQAIHHTSVDGLDLVPANIDLSAAEIQLVNEVGREQTLARALRPVMRDYDFIILDCQPSLGLLTVNALTCSHGVIIPMECEYFSLRGLALLTDTVEKVRDRLNFDLEIVGILVTMFDRRTTHAREVMSRVVEVFEDRVFDTVITRTVRFPETSVAGEPITTWAPSSQGAQQYRQLAREVIERTA", "soluble on expression in E. coli": "not soluble"},
      {"sequence": "MGSDKIHHHHHHMQKHARVIYNPTSGREIIKKNLADVLSILEQAGYVTSAHATTAEPDDAKHAAEEAVRNRFDLVVAAGGDGTINEVINGIAEKEYRPKVGIIPTGTTNDFARALHVPRDVIKATKIIAAGQSVAMDIGKANETYFINIGGGGRLTELTYDVPSRLKTMLGQLAYYLKGIEMLPSLKATKVKVEYDQGVFEGEVMFFLLGLTNSIGGFEKIAPDAKLDDGKFSLIIVKKVNLAEFIRLVTLALRGDHIKEPNVIYVKSEKVIVNSEDKMLINLDGELGGETPMEFRNLRQHIEFFASVDDIPATDLFIKENS", "soluble on expression in E. coli": "not soluble"},
      {"sequence": "MGHHHHHHSHDGAEPGRVDTFWYKFLKREPGGELSWEGNGPHHDRCCTYNENNLVDGVYCLPIGHWIEATGHTNEMKHTTDFYFNIAGHQAMHYSRILPNIWLGSCPRQVEHVTIKLKHELGITAVMNFQTEWDIVQNSSGCNRYPEPMTPDTMIKLYREEGLAYIWMPTPDMSTEGRVQMLPQAVCLLHALLEKGHIVYVHCNAGVGRSTAAVCGWLQYVMGWNLRKVQYFLMAKRPAVYIDEEALARAQEDFFQKFGKVRSSVCSL", "soluble on expression in E. coli": "not soluble"},
      {"sequence": "MSLDLHNDLKSYLSELNTYSHVDKNEIYHSQRAGYMTGGGISIRNGASHTALAQVSLPKFDAGCGGIDIFTGGISFISHDQLIAALKNIASSAQGYAFMLGIETVSPLIASTMKQMETWANAINSLGINSCEVATGLVGSVWPARTAAKQQICRSAKNGGFASSFINARHQCADEGDYAKTMQSMAKDPLYDGMLLEEYNLTWKAVQKHPFLAKKENRKMAEEIMSLTGTLIIRRDKSLVVEPWPSRIYDDSFLPILLEGGTTRVYQCTGGNAKQNCLALEMKELTIPAEQAWKGRIKQALATIQQKILADTPLASEEIDLLSKSRLPLFKIVNVLTAYKREVSPISLYEVAEIVGNEMLIQYLREIIGTVRLAAIQLERGQMYDFDSQKFIEELERVEKVVSRYEERHYQRLEAENQLMLKIETLEQKIASQIILFEGHHHHHH", "soluble on expression in E. coli": "not soluble"},
      {"sequence": "MYKNILLGVDTQLKNEKALKEVSKLAGEGTVVTVLNAISEQDAQASIKAGVHLNKLTEERSKRLEKTRKALEDYGIDYDQIIVRGNAKEELLKHANSGKYEIVVLSNRKAEDKKKFVLGSVSHKVAKRATIPVLIVK", "soluble on expression in E. coli": "not soluble"},
      {"sequence": "GPGSMLCRVHLRADPHSSSLHNVVHATNAMAAVNQLLGPERSVFVATEVQPQGVGHSCHGIQLPEDAIIAENVRTSMLVPKVRLHILGDAERGIPPVQQVVIWGYETCGCILQTADDLLTHGVRVAVLVDGCASRTKEVHDTAVLQISRWDGLMVTTVPSAVMQLTRSDARFVKPIIQIMKKFAADWCTTQPRPELRDRGGSGDGEKATAASDARAVPSALATATAADAILAANSACCRTEH", "soluble on expression in E. coli": "not soluble"},
      {"sequence": "SATPLDNCLRPFPDPMVKVTAETKKISEVSSYVSANNKKNSFWGSGLLYPVALLRCQDCWAGHQTHVLSKEFTSYFSSGAGREAQHQPSAVLGSLIWLRRVYLLRAMVVHGGSQPCQRWLVIRMEVGGHPSFPGHAWLTFHLN", "soluble on expression in E. coli": "soluble"},
      {"sequence": "MTTALKIDFISDVSCPWCVIGLRALDQALEALGDEVQAQIHFQPFELNPNMPAEGQDIKEHIAEKYGSTPEQIEAIHETIRERGAELGFTFGKGERRIYNTFDAHRLLHWAEQEGKQPALKQALFVAYFSELKDPSSHQTLADVAQKVGLDRLRAQAILDSDEFASEVREAEQLWTSRGITSVPTMVFNDQYAVSGGQPVEVFVSAIRQMLSESK", "soluble on expression in E. coli": "not soluble"},
      {"sequence": "MREKLFWILKKYGVSDHIAKAFLEIPREEFLTKSYPLSYVYEDIVLVSYDDGEEYSTSSQPSLMALFMEWVGLDKGMRVLEIGGGTGYNAAVMSRVVGEKGLVVSVEYSRKICEIAKRNVERLGIENVIFVCGDGYYGVPEFSPYDVIFVTVGVDEVPETWFTQLKEGGRVIVPINLKLSRRQPAFLFKKKDPYLVGNYKLETRFITAGGNLGNLLERNRKLLREFPFNREILLVRSHIFVELVDLLTRRLTEIDGTFYYAGPNGVVEFLDDRMRIYGDAPEIENLLTQWESCGYRSFEYLMLHVGYNAFSHISCSI", "soluble on expression in E. coli": "soluble"},
      {"sequence": "MGSSHHHHHHSSGLVPRGSHMSQDVPGNLLDEIRILRSPKGYLYAGLPKFRALFGRDSIISSIQLIDLFPDIAQNTVIYLKDLQGRKLDYSIGEYPGKILHEYYDDEKIFLDRKRSIPWLNSRINYFSVDSTPLFILLIKNLFLRNLIDIEQFKDSIMMAMQFLIAYSSSDGLITYDKALLGAGLMSQSWRDGVGDIMDRLKSPVATVGVQGYFYESADFVLNLFPDSLIEESLPDLKDFYSKMREILENKFWLEETGYYGLAVDGDGVIEQAATSDPGHLIGSGILTRSRERDVIDRLFESDLLTDYGIRTLSAKDPRFDPKAYQRGSIWPQDNWIIADGIKRRGYLKEYRELRERLIAAYEYYGRMPEYFGVDRYGKIMDLSKLRIKPCYPQAWSTGAIINFVTFK", "soluble on expression in E. coli": "soluble"}
    ]}
  ]
}
